Experiment [1] addresses Biot-CC2-LZ (murine). The experiment is described as follows: HTRF, 50 nM each, in the presence of Mono-Ub (1 µM). Background: Time-resolved FRET reads energy transfer from a long-lived donor to a nearby acceptor.
The target in experiment [2] is Biot-CC2-LZ (murine). The experiment is described as follows: HTRF, 50 nM each, in the presence of Poly-Ub (12.5 µM).
Experiment [3] addresses Biot-CC2-LZ (murine). In words: HTRF, 50 nM each, streptavidin-EuK 2 nM, anti-His-XL665 7 nM.
Experiment [4] addresses Biot-CC2-LZ (murine). In words: HTRF, 50 nM each, in the presence of GST-Ub4 (12.5 µM), which induces the CC2-LZ dimer.

B1: His-CC2-LZ (protein)
chain: MGSHHHHHHSSGLVPRGSHMASLEDLRQQLQQAEEALVAKQELIDKLKEEAEQHKIVMETVPVLKAQADIYKADFQAERHAREKLVEKKEYLQEQLEQLQREFNKL
In the case of B1, the FRET (ΔF %) was < 0 ΔF % in experiment [1], < 0 ΔF % in experiment [2], < 0 ΔF % in experiment [3] and 373 ΔF % in experiment [4].
